Data: patent publication US20220380446A1 (ABL BIO, published 2022)

Key:
[1] = molecular target: T1, monomeric human α-synuclein (Active Human Recombinant Alpha Synuclein Protein Monomer type II, StressMarq … (human, UniProt P37840 1-140)); test: SPR (Biacore T200), antibody captured on Protein A chip, α-syn monomer as analyte (Monomer-1), 25 °C; Run01; number of the software's 1:1 fit printed under a sensorgram without binding response (the filing's Table 18: No-binding)
Description: (§1) The equipment used was Biacore® T200. The anti-α-syn monospecific antibody or the anti-α-syn/IGF1R bispecific antibody was diluted with 1×HBS-EPT. […] Each diluted monomer sample was injected at 60 μL/min onto the Protein A chip surface for 60 seconds, followed by washing with 1×HBS-EP buffer. The dissociation rate was evaluated for 180 seconds. All procedures in association/dissociation phases were done in single cycle kinetics. The chip surface was regenerated by injecting 10 mM glycine-HCl pH 1.5 (GE Healthcare) onto the chip surface for 60 seconds at 30 μL/min, removing residual α-syn monomer/antibody complex. A 1:1 binding model was used for fitting, and the Biacore® T200 Evaluation software was used for evaluation.

[2] = molecular target: T1, monomeric human α-synuclein (Active …); test: SPR (Biacore T200), antibody captured on Protein A chip, α-syn monomer as analyte (Monomer-4), 25 °C; Run02; number of the software's 1:1 fit printed under a sensorgram without binding response (the filing's Table 18: No-binding)
Description: as §1

[3] = molecular target: human α-synuclein oligomers (Dopamine HCL Stabilized Human Recombinant Alpha Synuclein Oligomers, StressMarq … (human, UniProt P37840 1-140)); test: sandwich ELISA, antibody coated, oligomeric α-syn added, 7B7-biotin detection
Description: In this sandwich ELISA, test antibodies were diluted with PBS by five-fold serial dilution from 80 nM to 0.005 nM. The serially diluted antibodies were added to a 96-well plate at 100 μL/well for coating. The plate was sealed and incubated at 4° C. for 16 hours. After washing with PBS-T five times, the plate was blocked with 5% BSA in PBS 200 μL/well at 37° C. for 2 hours. After washing with PBS-T five times, oligomeric α-syn (2 μg/mL, 100 μL/well in 2% BSA in PBS) was added and incubated at 37° C. for 2 hours. After washing with PBS-T five times, 7B7-biotin antibody (1 μg/mL, 100 μL/well, in 2% BSA in PBS) were added and incubated at 37° C. for 2 hours. After washing with PBS-T five times, the plate was incubated with Streptavidin-HRP in 2% BSA in PBS (1:5000, 1 mg/mL stock, 20 ng/well, 100 μL/well) at 37° C. for 1 hour. After washing with PBS-T five times, TMB (100 μL/well) was added and incubated at RT for 5 minutes. The reaction was stopped by the addition of 0.5 N H₂SO₄ (50 μL/well).

[4] = molecular target: T2, human α-synuclein pre-formed fibrils (Human Alpha Synuclein Pre-formed Fibrils Type II, StressMarq SPR-317) (human, UniProt P37840 1-140); test: SPR Biacore T200, antibody captured on Protein A chip, α-syn PFF analyte, 1:1 model
Description: The equipment used was Biacore® (GE Healthcare, Model T200). Protein A (GE Healthcare, Cat: 29-1275-56) was used as a chip, 10 mM glycine-HCl pH 1.5 (GE Healthcare, Cat: BR-1003-54) was used as a regeneration buffer, and HBS-EP was used as a running buffer and an analyte dilution and sample dilution buffer. […] A capture phase was carried out at a contact time of 60 seconds and a flow rate of 30 μL/min was used for a stabilization period of 60 seconds, with the target resonance units (RU) of fibril set to 10 (theoretical). In an association phase, the association time was set to 60 seconds and a flow rate was set to 60 μL/min. In a dissociation phase, the dissociation time was set to 180 seconds, and a flow rate was set to 60 μL/min. In a regeneration phase, the flow rate was set to 30 μL/min, and the regeneration time was set to 60 seconds. A 1:1 binding model was used for fitting, and the Biacore® T200 Evaluation software (GE Healthcare) was used for the evaluation.

[5] = molecular target: T2, human α-synuclein pre-formed fibrils …; test: SPR (Biacore), file name 'Main-ProA', α-syn PFF as analyte (sample PFF-1), single-cycle kinetics, 1:1 Binding fit, 25 °C; Run01
[6] = molecular target: T2, human α-synuclein pre-formed fibrils …; test: SPR Biacore, antibody captured on anti-hFab CM3 chip, α-syn PFF analyte, single-cycle kinetics, 1:1 model
Description: The equipment used was Biacore®. Anti-hFab (Sigma, I5260-1ML) diluted in acetate buffer (pH 5.0) was immobilized on the surface of an CM3 chip (GE Healthcare) by amine coupling. […] All procedures in association and dissociation phases were done in single-cycle kinetics. A 1:1 binding model was used for fitting, and the Biacore® T200 Evaluation software was used for the evaluation.

koff [1]: 2.23 s⁻¹ | kon [1]: 3.57e+07 M⁻¹ s⁻¹ | koff [2]: 0.537 s⁻¹ | kon [2]: 46900 M⁻¹ s⁻¹ | EC50 [3]: 3.82 nM | Kd [4]: 0.0281 nM | koff [4]: 0.000322 s⁻¹ | kon [4]: 1.14e+07 M⁻¹ s⁻¹ | koff [5]: 0.000472 s⁻¹ | kon [5]: 1.35e+07 M⁻¹ s⁻¹ | Kd [6]: 0.0379 nM | koff [6]: 0.000706 s⁻¹ | kon [6]: 1.87e+07 M⁻¹ s⁻¹
B1: hu1E4(V1_VL1) x Grabody B (bispecific antibody, human IgG1, kappa)
heavy 1: not shown
heavy 2: not shown
light: DIVMTQTPLSLSVTPGQPASISCRSSQSLVHSNGNTYLHWYLQKPGQSPQLLIYKVSNRFSGVPDRFSGSGSGTDFTLKISRVEAEDVGVYYCSQSTHVPRTFGQGTKLEIKRTVAAPSVFIFPPSDEQLKSGTASVVCLLNNFYPREAKVQWKVDNALQSGNSQESVTEQDSKDSTYSLSSTLTLSKADYEKHKVYACEVTHQGLSSPVTKSFNRGEC
notes: Anti-α-syn/IGF1R bispecific; hole heavy chain (M428L) carries the anti-IGF1R scFv Grabody B at its C-terminus through a (G4S)3 linker; knob heavy chain (M428L) without scFv; also called hu1E4(V1 VL1) × Grabody B; 1E4(Ver.1_VL1) × Grabody B
